The data set relates to CsrA-H6 (Escherichia coli (stated identical to S. Typhimurium CsrA)). As to the kind of experiment: EMSA. Background: In EMSA bound probe runs differently from free probe, usually more slowly.

Broadly, the Kd is the constant that tells how readily two partners part at equilibrium. Low readings indicate higher affinity, high ones lower affinity.

Substance hilE leader RNA (+153 to +280) had a Kd of 37 nM.
